Assay results taken from the supplement of paper PMC12042874.
± gives the uncertainty stated by the source.

assay: amyloid nucleation score (Sup35N fusion, yeast selection) (log enrichment); library NNK3; higher = more nucleation; inactive = no reads after selection
Summary of the method: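 The nucleation score is the log enrichment of output over input reads, calculated with DiMSum and centred on the mode score of non-aggregating sequences. Sequences with under 100 input reads were excluded. Reads came from Illumina sequencing of plasmid inserts from psi-negative yeast expressing Sup35N fused to peptides of 20 random codons, induced 24 hours with 100 μM copper sulfate and grown 7 days at 30°C without adenine and uracil.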

Substance | amyloid nucleation score
LLVTDYGFELTVQLWNKRSL | -0.155 ± 0.33
LLWKKRVEEDSWLHTGSERM | 0.904 ± 0.15
LLYIRC | 0.705 ± 0.23
LMDLNADKWHNAFTYSSVVE | inactive
LMFEL | inactive
LMFSMRTDRSMCGKDPLKRA | inactive
LMFYGFYLVLRGS | inactive
LMGGQMRDIVFHMQGF | 1.45 ± 0.1
LMGLNYAWDAFWLIFPGLCF | inactive
LMIVLKLP | inactive
LMLEASCCSHAEFPHGVKMR | inactive
LMLLIFAWFQILTVRIRLFR | inactive
LMPWTMSIWGL | inactive
LMSAFSIRRGYCCVENSASR | inactive
LNACSGFTFLFNRVVIKVIL | -0.42 ± 0.8
LNDGWVLIYYSGALSDREI | inactive
LNEVTVLTIMMCLRS | 0.971 ± 0.16
LNFEATSYLTMRYDLSYVRF | inactive
LNFMWRGMY | -0.135 ± 0.62
LNHYECSW | inactive
LNIMVE | inactive
LNLETLISWLSVCPRGRTEE | inactive
LNLLKLRKKAPHRPIPGRSG | inactive
LNLNFKVRGL | 0.654 ± 0.27

Substance | amyloid nucleation score
LNMGVTRLDLISLGWGSVSL | -0.41 ± 0.75
LNNWSKRVFLSPVPVWHSMS | -0.619 ± 1.9
LNSVKAGFINTKDPVMDSMC | -0.254 ± 0.84
LNTCNVFKYFVSGKRFREVG | inactive
LNTLGKNNIKRSILRRSLYY | inactive
LNWLITYLGKR | 2.24 ± 0.092
LPFNGTGTAWCSAGAQLFGR | 0.837 ± 0.15
LPLADLKGMASASFKDGKVF | inactive
LPLVVIFQLSTYVRQWYA | 0.618 ± 0.28
LPSICVSPI | inactive
LPWTLGVFGLMY | inactive
LQANAI | inactive
LQDKQCHVWDYASGIAYVVE | inactive
LQHVIFSYLLVGASSFRFHP | inactive
LQYLRDCEFCRYVCYCNWLY | 0.443 ± 0.34
LQYWSFKSSSYGGLDIYCEA | inactive
LREQGRNTSR | inactive
LRFGHHMGYEWHLSRKVGSK | inactive
LRFNDYMC | inactive
LRGAVVVSEKTRVTTQCIAR | inactive
LRIKMGIYAHDLCAVIMYTL | 0.515 ± 0.35
LRMFSRVGRNRCYNITSFTC | inactive
LRQGWILVA | inactive
LRQQRHACAIMEVSG | inactive

Substance | amyloid nucleation score
LRQVNQWVDVKASDPNGTAL | inactive
LRRFWDRIPCFCLFHRFSFY | inactive
LRRYALGLSYCLEVK | inactive
LRVCTELRMVLDISYNVGNF | 0.68 ± 0.18
LRVRFTISWL | -0.471 ± 0.41
LRWCGSVFLFGGCRGTVVSW | inactive
LRWFAFSKSNIALGL | inactive
LSAATYPL | inactive
LSAMLDTDAYRGLW | inactive
LSCCSSGGGSTPVIAPTYYE | inactive
LSCVRRSSLDSC | inactive
LSCWNIRGWLRWS | inactive
LSDMNVNKRMCCMVRDSNMR | inactive
LSESYDRQRFKSTF | 0.694 ± 0.21
LSEWI | inactive
LSFTEY | inactive
LSFYISPS | 0.748 ± 0.1
LSGDLVCRKVFTRRCTSKWL | inactive
LSGFDFAL | inactive
LSGVSWKLCVYCFTVRGAAL | 0.863 ± 0.22
LSHPTPQSCRHFVFNLKLSA | inactive
LSLDLSPSNLNPRWFDTPFH | inactive
LSLFSRSASFSSSLHMAMYH | inactive
LSLNLRYHQPVNWNSRDTCL | 1.31 ± 0.12

Substance | amyloid nucleation score
LSLNLSLNMKVKLYVYWGYR | inactive
LSLSM | inactive
LSLSRRGYQLLLEASGRCYV | inactive
LSNTRLRNMFSRDRGASLEG | inactive
LSPARQLTLLGDKNPANNIL | inactive
LSPYRYSCYPYPTYSRYP | 0.44 ± 0.24
LSRMTRESKPQEISAQARLD | 1.14 ± 0.13
LSSCKLSYSKQLSRTVNQL | inactive
LSSDNCTFPFHRLGGYKQSY | inactive
LSSFLLFLAELCWVLKQRMC | inactive
LSSGG | 0.088 ± 0.4
LSSWTNLLIWSLNLCPVMFV | inactive
LSTCFTGAFRVSNREKSNVS | 0.059 ± 0.43
LSTSL | inactive
LSTYPDI | inactive
LSVFDMGIRKM | inactive
LSVLWYSWWGFNTG | inactive
LSWIWNLANSVKDNMGGMRM | inactive
LSYESCFGSHVGMRAEGCSR | -0.485 ± 1.2
LSYFSLFYADGRHFRCLLDN | inactive
LSYLC | inactive
LSYVRCVRWWY | inactive
LTLISGIAFLCLLLDNHNTV | inactive
LTPSECMENYRGFSDMRRCP | inactive

Substance | amyloid nucleation score
LTYHWNVVQLTLGNCFSGWG | 2.55 ± 0.059
LVASSRW | inactive
LVDAVHLCSNVNYTFCTNAG | 1.3 ± 0.074
LVESDLYVCTTVRGQVSMKG | inactive
LVGMDTGIVNDSIDGPGYWV | inactive
LVHLEVGQGSSVVEHLRCVL | inactive
LVIGVYWDRSPLVSSPFPLN | inactive
LVLDINTFTDIGSRKRWSHG | inactive
LVLTSPFRYSIV | inactive
LVLVSTFMHVGDVCYHMYY | 2.99 ± 0.057
LVNEKNIRVEVCIAYACQDS | -0.053 ± 0.33
LVNMHLSLSYGDLSRRQFVN | inactive
LVNTCKNSFLVVLHF | 2.09 ± 0.065
LVPFLVDIHVGWDISLKVVR | inactive
LVQIPYTDDVRLKGMINP | inactive
LVRLGMQRCRPLT | inactive
LVSVVYLEGTGGDYDFFIAT | 2.01 ± 0.079
LVTDGMRRSEICLMVYSN | inactive
LVTETLFYCH | inactive
LVTGNVYVF | inactive
LVVCGVRWSMFIGIS | inactive
LVWVKLAANAFVV | 1.4 ± 0.074
LVYCFAYRVVHSNCHLESC | inactive
LVYLQDLQLSSMLDFHSCM | inactive
